“And” between values parts separate entries of the source, which are not always exact repeats. Equal values may be shown once. “Also recorded” adds a separate entry of the source.

Data set [1] can be described thus: Zeta potential. The data set is classed as physicochemical.
Data set [2] in a line: Negative-stain transmission electron microscopy of the assemblies. The data set is classed as physicochemical.
The nature of data set [3]: Atomic force microscopy of the assemblies. Type of data set: physicochemical.
The target of data set [4] is T1, TLR2 (Mus musculus, UniProt Q9QUN7).
T1 construct: host or cells: HEK293 (HEK-Blue mTLR2)
T1 sequence (Q9QUN7 25-784): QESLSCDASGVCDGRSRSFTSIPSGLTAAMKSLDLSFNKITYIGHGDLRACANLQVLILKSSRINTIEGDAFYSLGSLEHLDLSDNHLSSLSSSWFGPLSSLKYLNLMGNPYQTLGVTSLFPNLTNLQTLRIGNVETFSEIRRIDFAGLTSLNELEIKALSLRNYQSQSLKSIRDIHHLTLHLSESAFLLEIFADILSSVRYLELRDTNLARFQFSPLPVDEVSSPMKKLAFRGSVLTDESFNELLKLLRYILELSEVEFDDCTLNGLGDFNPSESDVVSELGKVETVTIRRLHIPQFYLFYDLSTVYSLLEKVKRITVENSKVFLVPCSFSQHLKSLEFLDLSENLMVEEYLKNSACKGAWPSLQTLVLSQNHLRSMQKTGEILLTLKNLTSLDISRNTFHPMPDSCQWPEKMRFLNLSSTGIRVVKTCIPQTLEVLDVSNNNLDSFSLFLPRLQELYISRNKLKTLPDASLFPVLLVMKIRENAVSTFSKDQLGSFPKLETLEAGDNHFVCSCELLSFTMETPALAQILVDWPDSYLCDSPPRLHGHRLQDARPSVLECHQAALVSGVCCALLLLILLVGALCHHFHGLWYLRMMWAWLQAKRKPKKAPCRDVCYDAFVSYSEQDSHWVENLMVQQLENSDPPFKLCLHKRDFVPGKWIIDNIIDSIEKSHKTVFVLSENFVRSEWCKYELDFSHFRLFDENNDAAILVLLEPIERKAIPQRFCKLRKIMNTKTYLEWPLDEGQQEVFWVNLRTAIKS
Put plainly: TLR-2 stimulation, SEAP activity in HEK-Blue mTLR2 cells. Type of data set: cell-based. As to conditions: HEK-Blue mTLR2 cells, 16 h. How it is done: TLR-2 stimulation. HEK293 cells stably co-transfected with mTLR2 and SEAP (HEK-Blue mTLR2 cells, InvivoGen) were cultivated in Dulbecco's Modified Eagle's Medium supplemented with 4.5 g/I glucose, 10% (v/v) fetal bovine serum, 100 U/ml penicillin, […], […], 2 mM L-glutamine. At 50-80% confluency, cells were seeded in Hek-Blue detection medium (InvivoGen) at a density of 50,000 cells/well in a 96-well plate containing NRs and controls. After 16 h incubation at 37° C. in 5% CO2, absorbance was monitored at 630 nm.

The test system of data set [5] is INS-1E cells. The data set is classed as cell-based, Rat. The conditions noted are these: 24 h, 50×10^−6 m.
For data set [6], the system named is macrophage cells (J774A.1).
Data set [7] has as its system HEK293T cells.
Data set [8] can be described thus: Thermal denaturation monitored by CD spectroscopy. Type of data set: physicochemical. As to conditions: CD at 222, 212 and 205 nm.
The test system of data set [9] is dendritic-like cells (DC2.4).

Ac-KGSGSSNNFGAILSS-NH2 [Ac-KI10]: in [1], the Surface charge is on record as 49 ± 5 mV. The Morphology entry in data set [2] (pH 7.4) was “rope-like fibrils; also recorded: thick rope-like”. The Heigth in data set [3] was 7.0 nm and 7.0 ± 0.7 nm.
As for HGSGSSNNFGAILSS [HI10], the “Morphology of variants of the KI10 sequence” value in data set [3] was “do not adopt a short-like rod confirmation”.
Turning to Pam2CSK4, the SEAP activity entry in data set [4] is recorded as “SEAP activity was measured”.
On to RGSGSSNNFGAILSS [RI10], for which the “Morphology of variants of the KI10 sequence” value in data set [3] was “do not adopt a short-like rod confirmation”.
Regarding “islet amyloid polypeptide (KCNTATCATQRLANFLVHSSNNFGAILSSTNVGSNTY; Islet amyloid polypeptide; UniProt P10997 34-70, looked up) [IAPP]”, the “calcein-AM/ethidium homodimer-1 staining” value in data set [5] is “increase of ethidium homodimer-1 and a decrease of calcein-AM staining”; in data set [7], “increase of ethidium homodimer-1 and a decrease of calcein-AM staining”. In data set [2] (Tris 50×10^−3 M pH 7.4, rotary agitation 48 h, 150×10^−6 M (KKI10 500×10^−6 M)), the Morphology entry was “polymorphic twisted ribbons and fibrils”. In addition, the Cytotoxicity result in data set [6] and in data set [9] was “high decrease of viability” throughout. For the same substance, in data set [8], the Thermal denaturation entry is on record as “no melt observed”.

Values taken from patent publication US20230234991A1, “SELF-ASSEMBLED PEPTIDE NANORODS AND USES THEREOF” (TRANSFERT PLUS, SOCIÉTÉ EN COMMANDITE, priority 2020, published 2023).
